Assay results reported in paper PMC12035560, “Structures of Mycobacterium tuberculosis isoprenyl diphosphate synthase Rv2173 in substrate-bound forms” (Acta Crystallographica Section F: Structural Biology …, 2025).

Target: the molecule itself
Assay: crystal structure

B1: Mycobacterium tuberculosis isoprenyl diphosphate synthase Rv2173 (enzyme)
chain: LESTSLYKKAGSAAALFRFKKEPFTMAGAITDQLRRYLHGRRRAAAHMGSDYDGLIADLEDFVLGGGKRLRPLFAYWGWHAVASREPDPDVLLLFSALELLHAWALVHDDLIDRSATRRGRPTAQLRYAALHRDRDWRGSPDQFGMSAAILLGDLAQVWADDIVSKVCQSALAPDAQRRVHRVWADIRNEVLGGQYLDIVAEASAAESIESAMNVATLKTACYTVSRPLQLGTAAAADRSDVAAIFEHFGADLGVAFQLRDDVLGVFGDPAVTGKPSGDDLKSGKRTVLVAEAVELADRSDPLAAKLLRTSIGTRLTDAQVRELRTVIEAVGARAAAESRIAALTQRALATLASAPINATAKAGLSELAMMAANRSA
notes: also called tagged Rv2173; not shown: His6, N-terminal, kept
  stoichiometry N: 2
